According to patent US8647613B2, “Drug carrier” (JCR Pharmaceuticals Co., Ltd., priority 2005, dated 2014):

How the values were obtained:
[1] = Hydrolysis of compound 28 in the liposome at low pH (thin layer chromatography); format: physicochemical; conditions: PBS pH 4.5, 37° C., 24 hours, liposome 3/4/3/0.03
Method: The prepared liposome (DOPC/chol/(28)/PEG-DPE=3/4/3/0.03, molar ratio) was dispersed in PBS of pH 4.5 at 37° C., and the dispersion was lyophilized 24 hours later. The dried mixed lipid powder was dissolved in chloroform and detected by thin layer chromatography (silica gel plate, chloroform/methanol (8/1) (volume/volume) detection: iodine).

[2] = cited from earlier work; for Isoelectric point: Table 2; for Isoelectric point (-): Table 5

With `CCCCCCCCCCCCCCCCOC(=O)CCC(NC(=O)C(N)CCC(=O)O)C(=O)OCCCCCCCCCCCCCCCC` (centres unmarked) [compound 28] as the molecule, how does the “hydrolysis in the liposome at low pH” value [1] read?
Its value is “hydrolyzed”.

For Ferritin, which Isoelectric point [2] is on record?
Its Isoelectric point is 4.0-5.0.

And the “Isoelectric point (-)” value [2]?
The value was 4.0-5.0.

Which results are given for Thyrogrobulin: model protein, 670 kDa?
Isoelectric point [2]: 4.5; Isoelectric point (-) [2]: 4.5

For “α-Lactalbumin: model protein, molecular weight 14 kDa”, which Isoelectric point [2] is on record?
Its Isoelectric point is 4.1-4.8.

And the “Isoelectric point (-)” value [2]?
The value was 4.1-4.8.

B1: Catalase (from bovie liver): model protein, 232 kDa (protein, UniProt P00432 2-527, looked up)
Catalase: ADNRDPASDQMKHWKEQRAAQKPDVLTTGGGNPVGDKLNSLTVGPRGPLLVQDVVFTDEMAHFDRERIPERVVHAKGAGAFGYFEVTHDITRYSKAKVFEHIGKRTPIAVRFSTVAGESGSADTVRDPRGFAVKFYTEDGNWDLVGNNTPIFFIRDALLFPSFIHSQKRNPQTHLKDPDMVWDFWSLRPESLHQVSFLFSDRGIPDGHRHMNGYGSHTFKLVNANGEAVYCKFHYKTDQGIKNLSVEDAARLAHEDPDYGLRDLFNAIATGNYPSWTLYIQVMTFSEAEIFPFNPFDLTKVWPHGDYPLIPVGKLVLNRNPVNYFAEVEQLAFDPSNMPPGIEPSPDKMLQGRLFAYPDTHRHRLGPNYLQIPVNCPYRARVANYQRDGPMCMMDNQGGAPNYYPNSFSAPEHQPSALEHRTHFSGDVQRFNSANDDNVTQVRTFYLKVLNEEQRKRLCENIAGHLKDAQLFIQKKAVKNFSDVHPEYGSRIQALLDKYNEEKPKNAVHTYVQHGSHLSAREKANL
Which “Isoelectric point (-)” value [2] does the source give for B1 here?
Its value is 5.5.
